Test results reported in US20240174733A1 (ACCELERON PHARMA, published 2024).
Values belong to the binder of their own block, whether it stands above or below them.

Experiments:
ActRIIA-mFc [1] = molecular target: T1, ActRIIA-mFc (human, UniProt P27037 21-135); test: similar binding assay (Biacore)
T1 construct: also called RAP-011; sotatercept analog RAP-011; not shown: "minimal linker"; mouse Fc domain

ActRIIA-mFc [2] = molecular target: T1, ActRIIA-mFc; test: SPR (Biacore), ligand amine-coupled on CM5 chip, ActRIIA-mFc as analyte
Experimental: GDF11 or activin A were immobilized on a Biacore™ CM5 chip using standard amine-coupling procedure. ActRIIA-hFc and ActRIIA-mFc proteins were loaded onto the system, and binding was measured. […] Using a similar binding assay, ActRIIA-hFc was determined to have high to moderate affinity for other TGF-beta superfamily ligands including, for example, activin B, GDF8, BMP6, and BMP10. ActRIIA-mFc behaved similarly.

T1 sequence (P27037 21-135): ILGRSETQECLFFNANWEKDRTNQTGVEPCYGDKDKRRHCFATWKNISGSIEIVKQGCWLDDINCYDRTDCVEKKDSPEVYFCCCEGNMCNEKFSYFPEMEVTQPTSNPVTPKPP

binding result (ActRIIA-mFc [1]): binds
B1: BMP10 (ligand, UniProt O95393 317-424, looked up)
chain: NAKGNYCKRTPLYIDFKEIGWDSWIIAPPGYEAYECRGVCNYPLAEHLTPTKHAIIQALVHLKNSQKASKACCVPTKLEPISILYLDKGVVTYKFKYEGMAVSECGCR

binding result (ActRIIA-mFc [2]): binds
B2: GDF11 (ligand, UniProt O95390 299-407, looked up)
chain: NLGLDCDEHSSESRCCRYPLTVDFEAFGWDWIIAPKRYKANYCSGQCEYMFMQKYPHTHLVQQANPRGSAGPCCTPTKMSPINMLYFNDKQQIIYGKIPGMVVDRCGCS
notes: Immobilized on a Biacore CM5 chip by amine coupling
